Measurements taken from the nanobody polyreactivity screen of Harvey et al. (2022).

experiment: yeast display, Sf9 membrane polyspecificity reagent, FACS + sequencing; frameworks hold sequencing errors
How it was run: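 Galactose-induced (36–48 hours) yeast carrying a synthetic nanobody display library were exposed to 10% biotinylated, detergent-solubilized Sf9 membrane reagent at 4 °C for 1 hour. FACS followed streptavidin microbead enrichment, using low and high (top ~1%) gates for expression (anti-HA) and reagent binding (streptavidin). Colony PCR, MiSeq 2 × 250 sequencing and CDR-length filtering followed. Labels for polyreactivity reflect the gate of origin.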

Sequence | polyreactivity (PSR sort gate)
QVQLVESGGCLVQAGGSLRLSCAASGRIFFYYTLGWYRQAPGKERELVAAINSTGSTNYADSVKGRFTISRDNAKNTVYLQMKSLKPEDTAVYYCNAGTRYIFLYPPFLGAAFDYWGQGTQVTVSS | low polyreactivity
QVQLVESGGCLVQAGGSLRLSCAASGRIFQGYAMAWYRQAPGKEREFVAAITLSGGSTYYADSVKGRFTISRDNAKNTVYLQMNSLKPEDTAVYYCNAYYPDEPSLDDYWGQGTQVTVSS | low polyreactivity
QVQLVESGGCLVQAGGSLRLSCAASGRIFVPNAMGWYRQAPGKERELVAAINWGGGSTYYADSVKGRFTISRDNAKNTVYLQMNSLKPEDTAVYYCAADHPYTMGVLPNQQFDYWGQGTQVTVSS | low polyreactivity
QVQLVESGGCLVQAGGSLRLSCAASGRSFDKYTMGWYRQAPGKERELVAAISTRGGSTYYADSVKGRFTISRDNAKNTVYLQMNSLKPEDTAVYYCATVPRPKAYDYWGQGTQVTVSS | high polyreactivity
QVQLVESGGCLVQAGGSLRLSCAASGRTFRSNAMGWYRQAPGKERELVAAITIGGSTTYADSVKGRFTISRDNAKNTVYLQMISLKREDSAVYYCKARDYYPYDYWGKGTQVTVSS | high polyreactivity
QVQLVESGGCLVQAGGSLRLSCAASGRTFRYYAMGWYRQAPGRERELVAAIRRAGSTTYADSVKGRFTISRDNAKNTVYLQMNSLKPEDTAVYYCIARRYGYGYALDYWGQGTQVTVSS | high polyreactivity
QVQLVESGGCLVQAGGSLRLSCAASGRTFRYYAMGWYRQAPGTERELVATITGSGGSTYYADSVKGRFTISRDNAKNTVYLQMTSLKPEDTAVYYCNARKVRYPYRWYDYWGQGTQVTVSS | high polyreactivity
QVQLVESGGCLVQAGGSLRLSCAASGSIFAAYTMGWYRQAPGKERELVAAISVSTVSTYYADSVKGRFTISRDNAKNTVYLQMNSLKPEDTAVYYCNADATDSYPEKDEHDSWGQGTQVTVSS | low polyreactivity
QVQLVESGGCLVQAGGSLRLSCAASGSIFGYYAMGWYRQAPGKERELVAAISYSGGSTYYADSVKGRFTISRDTAKNTVYLQMNSLKPEDTAVYYCNAVTSWAYWRGPRYDYWGQGTQVTVSS | high polyreactivity
QVQLVESGGCLVQAGGSLRLSCAASGSIFHPYGMGWYRQAPGKERELVAAITSSGGDTYYADSVKGRFTISRDNAKNTVYLQMNSLKPEDTAVYYCAATGLPGYYAYDYWGQGTQVTVSS | low polyreactivity
QVQLVESGGCLVQAGGSLRLSCAASGSIFIWYAMGWYRQAPGKERELVASITYSAGRTYYADSVKGRFTISRDNAKNTVYLQMNSLKPEDTAVYYCAADSPYVYTLDSYGEGDYWGQGTQVTVSS | low polyreactivity
QVQLVESGGCLVQAGGSLRLSCAASGSIFKGYAMGWSRQAPGKERELVAAITIDGSTYYADSVKGRFTISRDNAKNTVYLQMNSLKPEDTAVYYCAAVYLWYGSWPLHFAAYDYWGQGTQVTVSS | low polyreactivity
QVQLVESGGCLVQAGGSLRLSCAASGSIFLFNAMGWYRQAPGKDRELVATISWSGVVLRTYADSVKGRFTISRDNAKNTVYLQMNSLKPEDTAVYNCAARDLAFFTEYGYWGQGTQVSVSS | high polyreactivity
QVQLVESGGCLVQAGGSLRLSCAASGSIFSKNTMGWSRQAPGKDRELVATISIGGGSTYYADSVKGRFTISRDNAKNTVYLQMNSLKPADSAVYYCNASLRRPFSLYYYWGQGTQVTVSS | high polyreactivity
QVQLVESGGCLVQAGGSLRLSCAASGSIFTTYAMGWYRQAPGKERELVAAISVSGSSTYYADSVKGRFTISRDNAKNTVYLQMNSLKPEDTAVYYCNKAFRSVRPRRRYDYWGQGTQVTVSS | low polyreactivity
QVQLVESGGCLVQAGGSLRLSCAASGSILRYYAMGWYRQAPGKERELVAAISRGGSTYYADSVKGRFTISRDNAKNTVYLQMNSLKPEDTAVYYCARLPLRYYFGYDYWGQGTQVTVSS | high polyreactivity

Sequence | polyreactivity (PSR sort gate)
QVQLVESGGCLVQAGGSLRLSCAASGSTFPIYAMGWYRQAPGKERELVARITWNGGRTYYADSVKGRFTISRDNAKNTVYLQMNSLKPEDTAVYYCAAGKIGSYHYDYWGQGTQVTVSS | high polyreactivity
QVQLVESGGCLVQAGGSLRLSCAASGSTFTGYAMGWYRQAPGKEREFVATITKRGGRTYYADSVKGRFTISRDHAKNTVYLQMNSLKPEDTAVYYCARDQGKLVVPYDYWGQGTQVTVSS | high polyreactivity
QVQLVESGGCLVQAGGSLRLSCAASGSTFTLYAMGWYRPAPGKERELVAAIRRGGSTNYADSVKGRFTISRDNAKNTDYLQMNSLKPEDTAVYYCAADSYTSRSRYSGSGGYDYGGQGTQVTVSS | low polyreactivity
QVQLVESGGCLVQAGGSLRLSCAASGSTFVYYAMGWYRQAPGKESELVAAITSGGSTYYADSVKGRFTISRDNAKNTVYLQMNSLKPEDTAVYYCATDYTWFGYRYDYWGQGTQVTVSS | low polyreactivity
QVQLVESGGCLVQAGGSLRLSCAASGSTLYRYVMGWYRPAPGKESELVAAISWSGTNTYADSVKGRFTISRDNAKNTVYLQMNSLKPEDTAVYYSAAAGPGYNWGYRVYAIYDYWGQGSQVTVSS | high polyreactivity
QVQLVESGGCLVQAGGSLRLSCAASGSTSDIYARGWYSPAPGKEREFVAARSLTGGTTYYAASVKGRFTISCDNAKNTVYLQMNSLKPEDTAVYYCNADVGWWGYDDDYWGQGTQVTVSS | high polyreactivity
QVQLVESGGCLVQAGGSLRLSCAASGYIFDHYAMGCYRQAPGKERELVAAISRSAGSTYYADSVKGRFTISRDNAKNTVYLQMNSLKPEDTAVYYCNAVVAVRSWRKYEYWGQGTQVTVSS | high polyreactivity
QVQLVESGGCLVQAGGSLRLSCAASGYTFRYNAMGWYRQAHGKERELVATITRGGSTNYADSVKGRFTISRDNEKNTVYLLMYSLKPEDPAVYYCNKEAAPLGFVPSYYGRDYWRQGTQVTVSS | low polyreactivity
QVQLVESGGCLVQAGGSLRLSCAATGRTFHGYAMGWYRQAPGKERELVAAITSSGARTYYADSVKGRFTISRDNAKNTVYLQMNSLKPEDTAVYYCAKRGKQYRKMNYWGQGTQVTVSS | high polyreactivity
QVQLVESGGCLVQAGGSLRLSCAPSGSTFIPNPMGWYRQEPGKERELVAAISRRGGSTNYADSVKGRFTISRDNAKNTVFLQMNSVKPEDTAVYYCAAVSPRRYRYDYWGQGPQVTVSS | low polyreactivity
QVQLVESGGCLVQAGGSLRLSCASSGIIIRKYAMGWYRQQPGKERELVAAITTRGSRTYYADSVKGRFTISRDNAKNTVYLQMNSLKPEDTAVYYCASDRYTVRMDYWGQGTQVTVSS | high polyreactivity
QVQLVESGGCLVQAGGSLRLSCSSSGFIFFYNMGWYRQAPGKERDLVADISTGGSTNYADSVKGRFTISRDNAKNTVYLQMNSLKQEDTAVYYCAAVYYNVYQYEPWYDYWGQGTQVTVSS | low polyreactivity
QVQLVESGGCLVQAGGSLRLSSAASGSIFHAYAMGWYRQSPGKESELVAAITIDGSTNYADSVKGRFTISRDNAKNTVYLQMNSLKPEDTAVYYCNKDGAYDAYSYDYWGQGTQVTVSS | low polyreactivity
QVQLVESGGCLVQAGGSRRLSCDASVRIVPVYAMGWYRQAHGNERELVAAISQSGGSTYADSVKGRFTISRDNAKNTVYLQMNSLKPEDTAVYYCAARYWKWRPAYEYWGPGTQVTVSS | high polyreactivity
QVQLVESGGCLVQAGGTLRLSCAASGSILNSYALGWYRQAPGKERELVAAIDNRGGSTHYADSVKGRFTISRDNAKNTVYLQMNSLKPEDTAVYYCAKRFYGSVGYWRYYYWGQGTQVTVSS | low polyreactivity
